Assay results published in the DeepSol protein solubility set.

Test: soluble on expression in E. coli; label from the status in PepcDB or PDB records

Soluble on expression in E. coli, not soluble:
MGSDKIHHHHHHMLRECDYSQALLEQVNQAISDKTPLVIQGSNSKAFLGRPVTGQTLDVRCHRGIVNYDPTELVITARVGTPLVTIEAALESAGQMLPCEPPHYGEEATWGGMVACGLAGPRRPWSGSVRDFVLGTRIITGAGKHLRFGGEVMKNVAGYDLSRLMVGSYGCLGVLTEISMKVLPRPRASLSLRREISLQEAMSEIAEWQLQPLPISGLCYFDNALWIRLEGGEGSVKAARELLGGEEVAGQFWQQLREQQLPFFSLPGTLWRISLPSDAPMMDLPGEQLIDWGGALRWLKSTAEDNQIHRIARNAGGHATRFSAGDGGFAPLSAPLFRYHQQLKQQLDPCGVFNPGRMYAEL
MGSDKIHHHHHHMLRGLWGAAAGMITQQQRQEMLTNNLANVNTPGYKADQAAIRAFPNMLIAAMNTGNVPKGVAPVIGELTTGVYLQERMPNFRQGDLVETQNNTDVALLQGVMPTNEENGQPWALFYTVQNENGEVRYTRNGNFTVDGDGFLTTGDGFYVLGTDGNPLQVNNEWFNVDGDGMITDEAGAAIGQINVVVAEDPMQLVKEGNGLLRFEGDGELPTGVGNAAVNYQLQQGFIERSNVDAAQTMTEMMQAYRTFEANQQVLRAYDESLGKAVNEVGRIG
MGSDKIHHHHHHMLRKDIGIDLGTANTLVFLRGKGIVVNEPSVIAIDSTTGEILKVGLEAKNMIGKTPATIKAIRPMRDGVIADYTVALVMLRYFINKAKGGMNLFKPRVVIGVPIGITDVERRAILDAGLEAGASKVFLIEEPMAAAIGSNLNVEEPSGNMVVDIGGGTTEVAVISLGSIVTWESIRIAGDEMDEAIVQYVRETYRVAIGERTAERVKIEIGNVFPSKENDELETTVSGIDLSTGLPRKLTLKGGEVREALRSVVVAIVESVRTTLEKTPPELVSDIIERGIFLTGGGSLLRGLDTLLQKETGISVIRSEEPLTAVAKGAGMVLDKVNILKKLQGAG
MGSDKIHHHHHHMLSRFSDSRPAVTVKNVALTYSGADKPALQIEDLTIPEGQCVVLCGQSDSGKSSFLKMLNGLTPEYYPAQLSGQIFLGDLDLQKSSLEEISRHIASVFQHPSTQFFHSQVLQELVFPCENQGLSREEIENRLAWVMELFGLASLSRRTISSLSGGQQQRLALAVTAMQGTDVLVLDEPTANLDQEGIAIVEDILKTLKSQGKTIIIAEHRLSYLSQLADRYLYFQDGQVVTDYLADEFLSRTEECRQDMGLRCYDSEPYGRAIAELADQFVNDKEGLLVENLSVSQKENTLYEIEKLCLASGQVVGLVGANGSGKTSLARYLVGLAEDKKSRISWQGQTLSSRQRLEKTAFVMQDVRLQLFAESVERELTLGRKNRAVDEHLVARFGLSDLLERHPVSLSGGEQQRVMIVASLLADKEIFIFDEPTSGLDLRRMQQVASALVDLKMKNKLVLLISHDEELLNLVCDKIVDIKQLK
MGSDKIHHHHHHMLSVTRYSIKNVRLKPWVKFIWYFETKSNILLNNKLLPTDSIDIILNLSDVMEYKIENQDYTASNMHFNGIRDKHGFIIQHGNIRVIGISFYPFGLYPFLKIPISEFNRQIVDLEAVSQLFAKKLEESLNPIQSVEKIVLYLEEVLLSILEEDLISNKYVKLLNSFIYVNRYSNIKAFCDDTNINIKTLERICLKYTGYTPKILKRIYRFKMASNQLIYNYKDDELFDFIYENEYYDQAHFIKEFKKFSGTSPIKFSGENKTIKENIKYSYL
MGSDKIHHHHHHMLTRMMQATAAIQQSVDGYFAVPTSLLVPDARGGFSIYLKQERGFVLYAKEDEAFTMRHRMQLRAHGVTQVFVPAPQHPSFISHRERHFGRVLSDDSLPLPERARLFYETSTEIVKEVFEKKLPRTLKRETFDRILALVSEGISFLTLENSLKTVASLVAHDYHTYSHSLHVFVYSQALLQSYGFDEDSLVQFGLGAMLHDIGKTFLDAAILTKPAALTPDEREEVNRHPVFGVGACARMPLSQDAINCILFHHEKLDGSGYPCGLRGDEIPLPVRAITIADIYDALTSNRAYAPARNAFQVLRIMSSEMRDQLDLDMFRRFVLMLSGANVL
MGSDKIHHHHHHMLTRQRPLHGIGTTQAAVLKHLRRNGIASRAELAELCGVTQAAVSMMTRDLIARGIVIQGARRQSQRGAPHIDLMLAGNIGYALGVHANSYSLTVTLLDFCGNRIGEQQLEGPYDRFSDIQTAIKSLRTDLLTSNGIDEGLLIGAAVAMPTRFRHGTAFLDLAEEVVSWAGSDLASTLRETLDCPVMIENDANAAAMGELALGNASGHDNFAYLYLSEGIGSGIIIGKELYRGNLGNAGEVGALRARGLSRPSFDDLAAWCKEHQGHIPKGRSSDQWTAYLQANPTVLDAWLRRAGPELATLAFMVTAVLAPSAIYIGGTLPRLVREKLAPWLDFSTSNPFDGARVIQPDILIPQISAVDAVAFGAAAMILHSVPGNPGL
MGSDKIHHHHHHMLTSDPSESTAHLQRTISNLSARNAKLAELLKASRDKLSILQDQLEDLAAPPSTYGTFLEFSGGRETAEVFTAGRHMRLRISPDVEKAELVPGVQVRLGEASQVVEVCDISTTGQLATLVELLADNRGLICDHTGEERVVKLAAALTEGVDKLPKAGDTLLVDPRAGYAFEVIPKTEVSTLALEEVPDVTYADIGGLNSQIELIHDAVELPFTQPDLYRAYDLKPPKGVLLYGPPGCGKTLIAKAVANSLAQRIGAGNRSYFINVKGPELLNKYVGETERRIRLIFERARELAEEGRPVIVFFDEMESIFRTRGSGVSSDMETTVVPQLLTELDGVESLSNVIIIGATNREELIDPAILRPGRLDVKIRVERPDKQAARDVFARHLKQNIPTAEPIDSLINNAVDHLYADNPYVELSLIDGSTEILHYRDFVSGAMIANIVDRAKKCAIKDHIAGRHSGVASEHLIAAINAENHESEDLPNTSNPDDWSRIIGRHGLRVAHARVLGGQR
MGSDKIHHHHHHMLVEHDISDVRVGMYIIEITVPKNKFRLAKQGWLDNERIIDALKSKSVEKVLIDASKTRIVADQNATTPSPSVATPSVTTKKGTKTSSESVKPKAASVRTKYQFNQEVIKAKQVFAESKAIQAKLFHNAQRGLPLEMESVCKITSESTDLIFNNPNALACVLNIRNKDEYLLEHSVSVSILMTMFALYLKIDRDIVNQLAIGAFLHDVGKIMVPDNILNKPGKLTDDEFFVMKSHARHSVSIMRKTPGISAISMEVAGQHHEKLNGKGYPLGLKGDKISLYGRMSSICDIFDALTATRCYKQGYPQVKCFGILRKLAENNELDIDLVDKFIKCMGVYPVGAVVQLDSNRLAIVESHNIADPIRPNVRPFYRLDPKLFEKGLDVDLSSAADEQIVKCVRADDFELDMQQIIEFLAQEA
MGSDKIHHHHHHMLVFFKERLVLLSVPKTGTTAYQTALRARADIVVSDPPELKHAPIYRYDRFFRPIFEKMFGVEMEIMAVVREPVDWLGSWYRYRRRPFMQGKPNATHGLSFDDFVTAYMQGKRPGFANVGSQARFLTPRPNGCTVSHLFKYENQPGIRAFLQDRLQTEIAPPRENVSPDLPLDLSPEIAERLRRKCAEEFDLHASAT
MGSDKIHHHHHHMLVGREKELHLLHDIQNDDSSHFVAVYGRMREGKTFLIREAFGYRFTFQHAGLSEGGMKEQIYAFTSSLKDAGYEVKKQPQNWLEAFEALKDVIRLSSEKKKIIFIDELSWMDTQKSDLMVALENFWNGFASARKDIVLIVCASATSWMLSKVVHNKGGLYNRLTEQIHLRTFCLRECEAYVKAAGLALNRNQILQYYMIFGGVPYYWGFLKKGLSLSQNIDSILFEKDAPLRDEFKYLYASVFKKPENYVKIIEALGTKKVGMTREEIITSTKIPNSGDLTTKLEELESCGFIRKYNAFGMKKKNAIYQLMDCFTLFYFKFLKSEPTDEHFWTNQINTPAVNTWLGLAFERVCMEHVDQIKFKLGISGVLTEINSWYCKSDPDNGIFGSQIDMLIARKDQVINLCEMKYSQSEYTITEKVDRSIRNKISDLRVVSGTKYAIYPTLITTYGVVENSYSQELQSVVTMDDLFA
MGSDKIHHHHHHMLYAYGARVWALPIFTHQVYLDKPTKPGDKTLSLATTGFDFYVGGRAVLMNGNKREMVDITGIEPDKLEIKRSLLNRFDTSTVVYPLRSAVLTDMPQLTRLSDEVATAQIRLQIHEHNGYAADIRHLPTYRGHPVLEPTSEWSEDITAQYLRLIKQLDNGTALPHYLDTAKNAFQLTNHRFLLDSIEAQHKLRQLFYYLRGRQKAIWVASSTSDLTLANDIVGKNLDIELVYYTTCLLKQAGRQDIRIECTDGSVHYRRILAATVSNNQTERLALDGEALNLKREQVAKISFLTLSRLESDTIDWVHHTDTVASVTVSFRGLRDELEV
MGSDKIHHHHHHMMDTVKNRRTIRKYQQKDITPDLLNDLLETSFRASTMGGMQLYSVVVTRDAEKKEILSPAHFNQPMVKEAPVVLTFCADFRRFCKYCQERNAVPGYGNLMSFLNAAMDTLLVAQTFCTLAEEAGLGICYLGTTTYNPQMIIDALHLPELVFPITTVTVGYPAESPKQVDRLPIEGIIHEESYHDYTAEDINRLYAYKESLPENKLFIEENQKETLPQVFTDVRYTKKDNEFMSENLLKVLRRQGFMD
MGSDKIHHHHHHMMLGPEGGEGYVVKLRGLPWSCSIEDVQNFLSDCTIHDGVAGVHFIYTREGRQSGEAFVELESEDDVKLALKKDRESMGHRYIEVFKSHRTEMDWVLKHSGPNSADSANDGFVRLRGLPFGCTKEEIVQFFSGLEIVPNGITLPVDPEGKITGEAFVQFASQELAEKALGKHKERIGHRYIEVFKSSQEEVRSYSDPPLKFMSVQRPGPYDRPGTARRYIGIVKQAGLDRMRSGAYSAGYGGYEEYSGLSDGYGFTTDLFGRDLSYCLSGMYDHRYGDSEFTVQSTTGHCVHMRGLPYKATENDIYNFFSPLNPVRVHIEIGPDGRVTGEADVEFATHEEAVAAMSKDRANMQHRYIELFLNSTTGASNGAYSSQVMQGMGVSAAQATYSGLESQSVSGCYGAGYSGQNSMGGYD
MGSDKIHHHHHHMMQLLVTGATGFVGKTLCSALRRQSFPVKAIGRAGTIRADALGDQVASIDGQTDWSLILDGINAVIHLAARVHVMREQLADPLAAYRETNVEGTLNLARQAAKAGVKRFVFISSIKVNGEQTLPGKPFTAYDVPAPEDAYGISKFEAEQGLLALARETGMDVVVIRPPLVYGPGVKGNFASMMKLVKSGIPLPLGAIHNQRSLVAIDNLVNLIVTCIDHPAAANQVFLVSDGEDLSTSDLLRRLAKAAGVSSRLMPVSARWLEMGLRMCGKRLIAQRLLGSLQVDISKTRELLGWVPPISVDEGLKRCFSTKG
MGSDKIHHHHHHMMTISNGNLRVDLRLIADMVEPGSRVLDVGCGEGALLDWLGRTKNVDGRGIELSMAGVSAAVSHGLSVIQGDADTDLKDYPSGAFDYVILSQTLQATYAPRTVLSNMLRIGRRAIVSFPNFGHWRVRLHLLTHGRMPVTDTLAYEWYDTPNIHFCTIRDFLDLCRDLGIRVERSIPLDRSGRTMAIPSCEGIANLFADQGLFVLSREG
MGSDKIHHHHHHMNAETPQNLMVASLQAPPVRTVVADPQSVHAAIESRFCCREFLADPVERETMERILRVASWAPSGSNNQPWKVYVVQGASRAALSQKVRAAQDALSQDPTLADNYREPYQYYPVEWVSPYIERRRACGFGLYGVLNIARGDRVRMNEQLLRNFDFFGAPVGIFFTNDEILAEGALVDTAMFVQNVMLAARAEGLHTCVQAAWNRFSSVVLPHIGAQGERLVCALALGHADVDAPVNTFRPDRADPASFTAWLD
